Molecular target: T1, CREB (Homo sapiens (Human), UniProt P16220 1-327)
T1 construct: also called CREB1
Assay: co-immunoprecipitation from HEK293 cells, Western blot

T1 sequence (P16220 other isoform, or with tags, fused parts or gaps): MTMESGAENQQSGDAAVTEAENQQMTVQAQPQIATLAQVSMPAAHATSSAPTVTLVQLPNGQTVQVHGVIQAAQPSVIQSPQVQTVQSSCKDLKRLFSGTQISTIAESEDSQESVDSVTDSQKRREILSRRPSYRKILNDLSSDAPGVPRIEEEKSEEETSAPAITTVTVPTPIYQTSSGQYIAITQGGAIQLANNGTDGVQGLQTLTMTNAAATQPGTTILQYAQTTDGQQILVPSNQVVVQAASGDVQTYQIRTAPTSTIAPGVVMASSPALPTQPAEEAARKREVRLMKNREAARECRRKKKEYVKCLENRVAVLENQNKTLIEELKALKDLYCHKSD

B1: Flag-tagged dominant-negative NFIL3 (other)
chain: MDYKDDDDKHMASMTGGQQMGRDPDLEQRAEELARENEELEKEAEELEQELAELENKLIALGEENATLKAELLSLKLKFGLISSTVYAQEIQKLSNSTAVYFQDYQTSKAAVSSYVDEHEPAMVAGSCISVIKHSPQSSLSDVSEVSSVEHTQESPAQGGCRSPENKFPVIKQEPVELESFARESREERGAYSASIYQSYMGSSFSTYSHSPPLLQVHGSTSNSPRTSEADEGVVGKSSDGEDEQQVPKGPIHSPVELQRVHATVVKVPEVNPSALPHKLRIKAKAMQVKVEALDSEFEGMQKLSSPADALAKRHFDLEKHGASGTAHSSLPPFSVQVTNIQDWSLRSEHWHHKELGGKTQGTFKTGVVEVKDSGYKVSEAENLYLKQGVANLSAEVVSLKRFIATQPISASDSR
notes: Expressed in HEK293 cells from modified pcDNA3.1; Species of the NFIL3 portion is inferred from the rat cDNA named in the same paragraph; also called DN-NFIL3; dominant-negative NFIL3 protein
binding result: no binding

Source: patent US20100273865A1 (VERENIGING VOOR CHRISTELIJK HOGER ONDERWIJS …, published 2010)
